# According to article PMC8581426, “CST6 protein and peptides inhibit breast cancer bone metastasis by suppressing CTSB activity and osteoclastogenesis” (Theranostics, 2021):
# Where a SMILES comes first, the peptide text is derived from it. The star is where a group is joined. Cbz = O=C(OCc1ccccc1)*; CHN2 = [N-]=[N+]=C*; tBu = CC(C)(C)*
# B1: CST6: human CST6 recombinant protein expressed in E. coli, type 2 cystatin, inhibitor of cysteine proteases (protein, UniProt Q15828 29-149, looked up)
# Cystatin-M: RPQERMVGELRDLSPDDPQVQKAAQAAVASYNMGSNSIYYFRDTHIIKAQSQLVAGIKYFLTMEMGSTDCRKTRVTGDHVDLTTCPLAAGAQQEKLRCDFEVLVVPWQNSSQLLKHNCVQM
# modifications: His tag
# Key:
# SCP2 cells = assay: SCP2 bone metastasis in mice (intracardiac injection); assay type: in vivo, mouse
# Procedure: For bone metastasis study was performed as previously described. Briefly, athymic Balb/c mice were anesthetized and 10^5 cells in 100 μL phosphate-buffered saline (PBS) were injected into the left cardiac ventricle. Peptides were administrated intravenously into the mice (n = 10 per group) at a dose of 1 mg/kg/day. The control mouse group were administered with same volume of peptide solvents. The metastatic burden was measured by bioluminescent imaging (BLI) with a NightOWL II LB983 Imaging System (Berthold). The osteolytic area was analyzed by the SkyScan 1076 In vivo X-ray Microtomograph (Bruker). The sections of hind legs of the mice was used for H&E, TRAP and immunohistochemistry staining.
# RAW264.7 cells [1] = assay: RAW264.7 osteoclastogenesis assay; assay type: cell-based, mouse
# Procedure: (§1) Primary bone marrow cells were harvested by flushing the cavity of tibia and femur from 5-6 week old Balb/c mice. Erythrocytes were removed by treating cell suspension with the Red Blood Cell Lysing Buffer (R7757, Sigma) for 5 min. The remaining cells were cultured in α-MEM (A1049001, Gibco) supplemented with 10% FBS and 5 ng/ml M-CSF for 12 h. Non-adherent cells were transferred into a 24-well plate and cultured in α-MEM supplemented with 10% FBS, 25 ng/ml M-CSF and 25 ng/ml RANKL for another 5 to 6 days. Cancer cell CM was mixed with α-MEM at a ratio of 1:3. CST6 protein, peptides or other drugs at indicated concentrations were administrated into the culture medium. For assessment of osteoclast differentiation, cells were stained using the Acid Phosphatase TRAP staining kit (387A, Sigma) as previously described. For RAW264.7 osteoclastogenesis assay, 700 cells per well were added into a 96-well plate and cultured in the same medium as shown above except that M-CSF was not essential. 7 ug/ml CST6 antibody (MAB1286, R&D) was used to neutralize recombinant human CST6 in RAW264.7 osteoclastogenesis assay.
# SPHK1 = assay: Intracellular SPHK1 protein level in RAW264.7 (Western blot); assay type: cell-based, mouse; conditions: Fig. 3B
# From the text: SPHK1 is cleaved by CTSB [20], and more importantly, SPHK1 can negatively regulate osteoclast differentiation by phosphorylating sphingosine into sphingosine-1-phosphate (S1P). Concordantly, we observed that Ctsb knockdown increased SPHK1 expression in primary bone marrow cells (Fig. 3A). […] Similarly, Sphk1 knockdown could also recover osteoclastogenesis of RAW264.7 that was suppressed by the treatment of CST6 recombinant (Fig. 3G, H).
# [2] = tested on: murine primary bone marrow cells; assay: Osteoclastogenesis of primary bone marrow cells (TRAP staining); assay type: cell-based, mouse; conditions: n = 3 independent experiments; for osteoclast differentiation of primary bone marrow cells: 10 μM inhibitor, Fig. 2F
# Procedure: as §1
# Chronic toxicity assay = assay type: in vivo, mouse; conditions: 10 mg/kg CA-074 for 8 consecutive days, nude mice, n = 9 per group; Fig. S6B
# Procedure: […] The body weights of the mice were measured. […] Mice were sacrificed and organs were harvested for weight measurements and H&E staining to observe the pathological changes.
# RAW264.7 cells [3] = assay: Internalization of His-tagged CST6 protein by RAW264.7 (Western blot); assay type: cell-based, mouse; conditions: RAW264.7 cultured with CST6-His and various concentrations of Dynasore; Fig. 2K
# Procedure: Cathepsins are lysosomal proteases and function only intracellularly in acidic environment. To verify that extracellularly derived CST6 could inhibit the intracellular CTSB activity of osteoclasts, RAW264.7 cells were cultured in the medium containing recombinant CST6 protein and the cell lysates were collected for CTSB activity analysis after phosphate-buffered saline (PBS) washing of the cells. […] Since osteoclasts are active in endocytosis, it is likely that exogenous CST6 is transported into osteoclasts via endocytosis. Indeed, we observed a co-localization of CST6 that entered the cells with the lysosome marker LAMP1 (Fig. S3B). […] Endocytosis inhibition also rescued the CST6-suppressed osteoclastogenesis of RAW264.7 cells (Fig. 2L).
# p38 = assay: Phosphorylation of p38 in RAW264.7 (Western blot); assay type: cell-based, mouse
# Procedure: To further validate the involvement of p38 signaling in CST6-suppresesed osteoclastogenesis, the p38 inhibitor SB203580 was used to treat RAW264.7 cells that were cultured in cancer cell CM.
# SCP2/SCP4 tumor cells = assay: Tumor cell growth after CST6 recombinant protein treatment; assay type: cell-based; conditions: 32 nM, n = 4 biological repeats, Fig. S1F
# [4] = tested on: RAW264.7 or primary bone marrow-derived osteoclasts; assay: Viability of osteoclasts after CST6 recombinant protein treatment; assay type: cell-based, mouse; conditions: n = 4 independent experiments; Fig. S1E
# [5] = Pharmacokinetic assay, circulation half-life; assay type: in vivo, mouse; conditions: Balb/c mice, 1 mg/kg intravenous, serum 0.25-4 h, ELISA (CST6 or His-tag), one-phase decay model; n = 4
# Procedure: For pharmacokinetic assays, CST6 protein or His-tagged peptides were administrated intravenously into Balb/c mice (n = 4 per group) at a dose of 1 mg/kg. Blood samples (100 μL) were collected using capillary at 0.25 h, 0.5 h, 1 h, 2 h, 3 h and 4 h, respectively. After 1 h at room temperature, the serum samples were obtained from the supernatant by centrifugation at 3000 rpm for 15 min. The CST6 content in serum was analyzed with CST6 ELISA kit (Sino Biological, 10438). The peptide content was analyzed with the His-tag ELISA kit (GenScript, L00436) according to the manufacturer's instruction. Blank serum samples from mice without protein/peptide administration were used as control. Standard curves for each protein or peptide were generated with standard samples of known concentrations to calculate the protein/peptide concentration in blood samples. The data for all peptides were fitted with the one-phase decay model using Prizm software (GraphPad Software) to calculate the half-lives.
# Acute toxicity assay = assay type: in vivo, mouse; conditions: Balb/c mice, intravenous, death counted after 24 h, n = 5 per group
# Procedure: For acute toxicity assays, Balb/c mice (n = 5 per group) were intravenously injected with the indicated protein or peptides at doses of 150, 200, 250, 300, 350 mg/kg. The death of mice was counted after 24 h. The median lethal dose (LD50) was calculated using the Bliss method.
# [6] = Tissue distribution by CST6 immunohistochemistry; assay type: in vivo, mouse; conditions: week 5 of 1 mg/kg/day, Fig. S6A
# Procedure: We then performed pharmacological evaluation of CST6 protein and peptides.
# Supplementary Figure 6. Pharmacological evaluation of CST6 recombinant protein and CA-074.
# (A) CST6 immunohistochemistry in various organs at week 5 after administration of 1 mg/kg/day CST6 peptides. The lung section from un-treated mice was used as negative control of the assay. Dotted lines denotes areas of bone metastasis. Scale bar, 150 μm. (B) The body weights of nude mice after treatment of 10 mg/kg CA-074 for 8 consecutive days (n = 9 mice per groups).
# (1 picture or pasted object on this page, not shown here)
# CTSB = target: T1, CTSB (Mus musculus, UniProt P10605); assay: Intracellular CTSB activity of RAW264.7 after treatment; assay type: cell-based; conditions: 32 nM CST6 protein in medium, lysates after PBS washing; Fig. 2I
# T1 construct: endogenous in cells; host or cells: RAW264.7
# Procedure: Cathepsins are lysosomal proteases and function only intracellularly in acidic environment. To verify that extracellularly derived CST6 could inhibit the intracellular CTSB activity of osteoclasts, RAW264.7 cells were cultured in the medium containing recombinant CST6 protein and the cell lysates were collected for CTSB activity analysis after phosphate-buffered saline (PBS) washing of the cells. […] Since osteoclasts are active in endocytosis, it is likely that exogenous CST6 is transported into osteoclasts via endocytosis. Indeed, we observed a co-localization of CST6 that entered the cells with the lysosome marker LAMP1 (Fig. S3B). […]
# Enzymatic activities of cathepsins were analyzed with the fluorometric kits of CTSB (K147, Biovision) and CTSL (K161, Biovision) according to the manufacturer's protocol. The LGMN activity was analyzed as previously described with minor modifications of the protocol. […] After three freeze-thaw cycles at -80 °C, the cell lysate was centrifuged at 10000 g for 15 min and the supernatant was transferred into a new tube followed by protein quantification. […] After adding 1 μL substrate Z-Ala-Ala-Asn-AMC (I1865, Bachem) into each well with a final concentration of 10 μM, fluorescence measurements were performed every 5 min at 37 °C using a BioTek's Synergy™ Mx Microplate Reader with a 360 nm excitation filter and a 460 nm emission filter. […]
# [7] = nude mice with SCP2, 1 mg/kg/day intravenous, n = 10 mice per group
# T1 sequence (P10605 80-339): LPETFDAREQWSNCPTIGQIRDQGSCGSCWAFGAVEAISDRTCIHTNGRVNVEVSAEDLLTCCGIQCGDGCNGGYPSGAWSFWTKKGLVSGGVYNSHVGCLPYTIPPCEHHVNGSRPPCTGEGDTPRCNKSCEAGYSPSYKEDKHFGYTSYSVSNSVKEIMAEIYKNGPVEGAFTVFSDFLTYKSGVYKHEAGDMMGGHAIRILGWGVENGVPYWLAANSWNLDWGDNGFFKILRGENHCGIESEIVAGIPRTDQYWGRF
molecule,measurement,setting,value
"CC(C)C[C@H](NC(=O)[C@H](Cc1ccccc1)NC(=O)c1cnccn1)B(O)O [Bortezomib, reference compound]",body weight of metastasis-bearing mice,"SCP2 cells; nude mice with SCP2, 1 mg/kg/day, Fig. 5F, Fig. S5B (week 5)","but not Bortezomib, recovered the body weight of mice"
CCCNC(=O)[C@H]1O[C@@H]1C(=O)N[C@H](C(=O)N1CCC[C@H]1C(=O)OC)[C@@H](C)CC [CA-074Me],osteoclast differentiation of RAW264.7 cells,"RAW264.7 cells [1]; treatment with Z-FY or CA074Me, n = 3 independent experiments, Fig. 2G",able to inhibit osteoclast differentiation
same,intracellular SPHK1 protein,SPHK1,stabilized the intracellular SPHK1 protein in a dose-dependent manner
same,osteoclast differentiation of primary bone marrow cells,[2],able to inhibit osteoclast differentiation
CCCNC(=O)[C@H]1O[C@@H]1C(=O)N[C@H](C(=O)N1CCC[C@H]1C(=O)O)[C@@H](C)CC [CA-074],body weight of mice,Chronic toxicity assay,caused apparent body weight loss of the mice
O=C(N/N=C/c1ccc(O)c(O)c1)c1cc2ccccc2cc1O [Dynasore],effect on intracellular accumulation of CST6,RAW264.7 cells [3],reduced the intracellular accumulation of CST6 in a dosage-dependent manner
"C[S+]([O-])c1ccc(-c2nc(-c3ccncc3)c(-c3ccc(F)cc3)[nH]2)cc1 (stereo not drawn) [SB203580, reference compound]",CM-induced osteoclast maturation of RAW264.7,"RAW264.7 cells [1]; RAW264.7 with RANKL and CM from CST6-knockdown or control SCP4, opposite to enhancement, Fig. 3L",showed the opposite effect
same,CM-induced p38 phosphorylation,"p38; RAW264.7 with RANKL and CM from CST6-knockdown or control SCP4, opposite to enhancement, Fig. 3K",showed the opposite effect
CC(C)(C)Oc1ccc(C[C@H](NC(=O)[C@H](Cc2ccccc2)NC(=O)OCc2ccccc2)C(=O)C=[N+]=[N-])cc1 [Z-FY(t-Bu)-DMK] (Cbz-Phe-Tyr(tBu)-CHN2),osteoclast differentiation of primary bone marrow cells,[2],"but not the CTSL inhibitor Z-FY(t-Bu)-DMK, was able to inhibit osteoclast differentiation"
B1,bone metastasis (BLI),"SCP2 cells; nude mice pre-inoculated with SCP2, 1 mg/kg/day intravenous, n = 10 mice per group",efficiently alleviated bone metastasis
same,"osteoclastogenesis and bone destruction in metastases (TRAP+ cells, micro-CT)",SCP2 cells; [7],reduced osteoclastogenesis and bone destruction
same,survival of the mice,SCP2 cells; [7],extended survival of the mice
same,growth of tumor cells,SCP2/SCP4 tumor cells,did not directly affect the growth of tumor cells
same,"expression of marker genes of osteoclastic differentiation (Caclr, Nfatc1, Acp5, Ctsk, Fos)","RAW264.7 cells [1]; RAW264.7, n = 3 biological repeats, Fig. 1J",downregulated
same,osteoclastic differentiation of RAW264.7 cells,"RAW264.7 cells [1]; cultured with RANKL, 32 nM human CST6 protein, Fig. 1I",inhibition of osteoclastic differentiation of cells
same,viability of osteoclasts,[4],did not affect the viability of osteoclasts
same,p38 activation,"p38; RAW264.7, Fig. 3B",inhibited p38 activation
same,Half-life,[5],10.48 min
same,LD50,"Acute toxicity assay; 150-350 mg/kg, Bliss method",322.00 ± 117.10 mg/kg
same,MTD,Acute toxicity assay,200 mg/kg
same,tissue distribution of administrated protein,[6],"mainly distributed in liver, kidney, intestine, spleen and bone metastasis foci"
same,intracellular SPHK1 protein,SPHK1,stabilized the intracellular SPHK1 protein in a dose-dependent manner
same,osteoclastogenesis of primary bone marrow cells,"[2]; RANKL-containing medium, 5 to 6 days, TRAP staining, indicated concentrations",significantly suppressed RANKL-induced differentiation of bone marrow cells into osteoclasts in a dosage-dependent manner
same,intracellular CTSB activity of RAW264.7,CTSB,inhibited the intracellular CTSB activity of RAW264.7
